This note sets out measurements from patent US20190263931A1 (IMMUNOMETABOLISM DEVELOPMENT, published 2019).

Assay [1] has as its target T1, human MCT1 (monocarboxylate transporter 1, SLC16A1) (human, UniProt P53985 1-500).
T1 construct: Multipass membrane transporter; also called human MCT1 protein
T1 sequence: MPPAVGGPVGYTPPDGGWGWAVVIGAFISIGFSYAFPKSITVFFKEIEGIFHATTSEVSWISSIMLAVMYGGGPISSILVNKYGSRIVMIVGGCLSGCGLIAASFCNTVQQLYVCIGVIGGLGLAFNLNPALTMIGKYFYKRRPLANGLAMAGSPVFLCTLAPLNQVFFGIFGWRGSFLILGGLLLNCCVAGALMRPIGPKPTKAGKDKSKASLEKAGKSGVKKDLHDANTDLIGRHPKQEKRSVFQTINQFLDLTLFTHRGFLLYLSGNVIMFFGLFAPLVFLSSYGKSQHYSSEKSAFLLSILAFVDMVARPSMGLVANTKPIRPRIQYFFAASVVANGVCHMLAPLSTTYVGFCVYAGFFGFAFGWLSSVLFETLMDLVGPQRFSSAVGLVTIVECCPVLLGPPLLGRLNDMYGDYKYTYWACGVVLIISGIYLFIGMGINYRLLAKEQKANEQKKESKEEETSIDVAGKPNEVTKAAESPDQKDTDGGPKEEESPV
Put plainly: Kinetic Exclusion Assay (KinExA).

A further assay deals with T2, rat MCT1 (rat, UniProt P53987 1-494).
T2 construct: whole, on cells; also called rodent MCT1
T2 sequence (looked up): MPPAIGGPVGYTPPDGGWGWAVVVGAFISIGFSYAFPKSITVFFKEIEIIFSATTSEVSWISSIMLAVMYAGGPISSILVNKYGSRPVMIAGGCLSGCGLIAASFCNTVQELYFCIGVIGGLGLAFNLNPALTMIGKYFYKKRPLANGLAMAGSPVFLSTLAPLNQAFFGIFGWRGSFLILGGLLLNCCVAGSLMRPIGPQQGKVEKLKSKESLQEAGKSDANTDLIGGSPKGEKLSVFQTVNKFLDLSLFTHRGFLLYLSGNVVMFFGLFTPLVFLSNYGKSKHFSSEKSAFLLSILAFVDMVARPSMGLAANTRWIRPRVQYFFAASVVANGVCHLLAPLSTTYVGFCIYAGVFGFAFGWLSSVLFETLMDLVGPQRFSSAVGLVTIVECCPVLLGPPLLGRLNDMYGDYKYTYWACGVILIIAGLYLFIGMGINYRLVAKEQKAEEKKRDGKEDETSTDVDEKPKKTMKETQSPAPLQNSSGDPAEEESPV
Put plainly: flow cytometry, rat PBMC (live gate), resting and stimulated. (In general: A flow cytometer gives signals particle by particle.)

Assay [2] addresses T1, human MCT1 (monocarboxylate transporter …). Nature of the assay: flow cytometry, MFI on 293T WT (MCT1+ 293) cells, full Mabs.

B1: MCT1 Ab1 (antibody, V domains shown)
VH: QVQLKATGPGLVQPTQTLSITCTVSGFSLTNYHLQWVRQTPGKGLEWMGFIRSSGNTEYNSEFKSRLSISRDTSKNQVFLKMNSLKTDDTGVYYCARNSWYHGTYYSPGYYVMDAWGQGASVTVSS
VL: NIHLTQSPSLLSASVGDRVTLSCKGSQNINNYLAWFQQKFGETPKLLIYNRHNLQTGIPSRFSGSGSGTDYTLTINSLQPEDVATYFCYQYSDGYTFGAGTKLELK
notes: also called INX310; Rat Anti-MCT1 antibody
What is called Kd is the equilibrium constant for the complex coming apart. Higher therefore signals a looser complex. The molecule B1 yielded a Kd in assay [1] of 6.3 nM. The binding result with rat MCT1 was “no binding”.

B2: LM-187 (antibody, V domains shown)
VH: AVTLDESGGGLQTPGGLVSLVCKASGFGFTNYEIHWVRQAPGKGLEWVGFVSSGGAYADYAPAVKGRATITRDNGQSTVRLQLVNLRAEDTGTYYCTRAPCGSWCGWGYTGVDNIDAWGHGTEVIVSS
VL: ALTQPSSVSANPGGIVKITCSGGGRGSHYGWYQQKSPGSAPVTLIYANNQRPSDIPSRFSGSESGSTATLTITGVQAEDEAVYFCGGYDSGATFGAGTTLTVL
In the case of B2, the binding result in assay [2] was “no binding”.
